Source: patent US20070131547A1

Columns and labels:
Experiment in all cases: cell-based or functional assay
[1] = biological target: ppuDp-Jun (diaphorase derived from Pseudomonas putida, Jun association site fused at the C-terminal side) (Pseudomonas putida)
[2] = biological target: T1, ecoISO-Dzip2 (xylose isomerase derived from Escherichia coli, Dzip2 association site fused at the C-terminal side) (Escherichia coli) (UniProt B1X8I1)
T1 sequence: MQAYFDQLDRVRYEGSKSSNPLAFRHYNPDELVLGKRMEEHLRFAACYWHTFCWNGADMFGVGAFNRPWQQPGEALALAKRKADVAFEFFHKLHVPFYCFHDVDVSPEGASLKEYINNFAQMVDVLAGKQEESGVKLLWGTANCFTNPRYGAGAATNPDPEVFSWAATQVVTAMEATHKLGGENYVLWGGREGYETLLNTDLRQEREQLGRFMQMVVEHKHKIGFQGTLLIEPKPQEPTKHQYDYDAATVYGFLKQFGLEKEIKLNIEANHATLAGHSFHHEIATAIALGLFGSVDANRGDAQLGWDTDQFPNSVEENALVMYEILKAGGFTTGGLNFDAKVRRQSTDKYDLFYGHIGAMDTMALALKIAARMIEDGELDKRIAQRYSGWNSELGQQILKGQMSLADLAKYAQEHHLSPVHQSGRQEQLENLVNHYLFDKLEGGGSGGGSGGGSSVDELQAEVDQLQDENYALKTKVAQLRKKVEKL

[3] = biological target: goxDp-Dzip2 (diaphorase derived from Gluconobacter oxydans, Dzip2 association site fused at the C-terminal side) (Gluconobacter oxydans)
[4] = biological target: T2, goxALDH-Dzip2 (aldehyde dehydrogenase derived from Gluconobacter oxydans, Dzip2 association site fused at the C-terminal side) (Gluconobacter oxydans)
T2 sequence: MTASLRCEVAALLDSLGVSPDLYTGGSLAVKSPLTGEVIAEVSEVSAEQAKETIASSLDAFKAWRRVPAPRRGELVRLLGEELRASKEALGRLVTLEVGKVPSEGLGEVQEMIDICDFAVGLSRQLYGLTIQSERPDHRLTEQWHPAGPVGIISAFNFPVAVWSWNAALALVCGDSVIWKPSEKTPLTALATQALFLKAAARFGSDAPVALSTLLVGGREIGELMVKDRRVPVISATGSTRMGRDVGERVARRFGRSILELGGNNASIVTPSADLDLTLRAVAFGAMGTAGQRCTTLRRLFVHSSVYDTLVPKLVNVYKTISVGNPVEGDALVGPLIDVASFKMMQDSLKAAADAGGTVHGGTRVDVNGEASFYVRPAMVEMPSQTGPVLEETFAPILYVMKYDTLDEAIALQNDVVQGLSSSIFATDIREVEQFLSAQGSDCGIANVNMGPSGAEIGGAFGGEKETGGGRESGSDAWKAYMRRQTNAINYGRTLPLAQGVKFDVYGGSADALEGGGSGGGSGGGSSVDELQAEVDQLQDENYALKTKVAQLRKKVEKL

[5] = biological target: phoDp-Jun (diaphorase derived from Pyrococcus horikoshii, Jun association site fused at the C-terminal side) (Pyrococcus horikoshii)

B1: His-busGDH-Fos (glucose dehydrogenase derived from Bacillus subtilis, His tag, Fos association site fused at the C-terminal side) (enzyme)
chain: MGSSHHHHHHSQDPYPDLKGKVVAITGAASGLGKAMAIRFGKEQAKVVINYYSNKQDPNEVKEEVIKAGGEAVVVQGDVTKEEDVKNIVQTAIKEFGTLDIMINNAGLENPVPSHEMPLKDWDKVIGTNLTGAFLGSREAIKYFVENDIKGNVINMSSVHEVIPWPLFVHYAASKGGIKLMTETLALEYAPKGIRVNNIGPGAINTPINAEKFADPKQKADVESMIPMGYIGEPEEIAAVAAWLASKEASYVTGITLFADGGMTQYPSFQAGRGKLGGGSGGGSLTDTLQAETDQLEDKKSALQTEIANLLKEKEKLEFILAAY
maximum electric power (glucose fuel cell) [1]: 101 µW/cm^2
shortcircuit current density (glucose fuel cell) [1]: 988 µA/cm^2

B2: His-sceADH-Fos (alcohol dehydrogenase derived from Saccharomyces cerevisiae, His tag, Fos association site fused at the C-terminal side) (enzyme)
chain: MGSSHHHHHHSQDPPSQVIPEKQKAIVFYETDGKLEYKDVTVPEPKPNEILVHVKYSGVCHSDLHAWHGDWPFQLKFPLIGGHEGAGVVVKLGSNVKGWKVGDFAGIKWLNGTCMSCEYCEVGNESQCPYLDGTGFTHDGTFQEYATADAVQAAHIPPNVNLAEVAPILCAGITVYKALKRANVIPGQWVTISGACGGLGSLAIQYALAMGYRVIGIDGGNAKRKLFEQLGGEIFIDFTEEKDIVGAIIKATNGGSHGVINVSVSEAAIEASTRYCRPNGTVVLVGMPAHAYCNSDVFNQVVKSISIVGSCVGNRADTREALDFFARGLIKSPIHLAGLSDVPEIFAKMEKGEIVGRYVVETSKKLGGGSGGGSLTDTLQAETDQLEDKKSALQTEIANLLKEKEKLEFILAAY
maximum electric power (alcohol fuel cell) [1]: 80 µW/cm^2
shortcircuit current density (alcohol fuel cell) [1]: 821 µA/cm^2

B3: His-busGDH-Dzip1 (glucose dehydrogenase derived from Bacillus subtilis, His tag, Dzip1 association site fused at the C-terminal side) (enzyme)
chain: MGSSHHHHHHSQDPYPDLKGKVVAITGAASGLGKAMAIRFGKEQAKVVINYYSNKQDPNEVKEEVIKAGGEAVVVQGDVTKEEDVKNIVQTAIKEFGTLDIMINNAGLENPVPSHEMPLKDWDKVIGTNLTGAFLGSREAIKYFVENDIKGNVINMSSVHEVIPWPLFVHYAASKGGIKLMTETLALEYAPKGIRVNNIGPGAINTPINAEKFADPKQKADVESMIPMGYIGEPEEIAAVAAWLASKEASYVTGITLFADGGMTQYPSFQAGRGKLGGGSGGGSGGGSTVAQLEEKVKTLRAQNYELKSRVQRLREQVAQLA
maximum electric power (fructose fuel cell) [2]: 101 µW/cm^2
shortcircuit current density (fructose fuel cell) [2]: 1110 µA/cm^2

B4: His-lplLDH-Dzip1 (lactic acid dehydrogenase derived from Lactobacillus plantarum, His tag, Dzip1 association site fused at the C-terminal side) (enzyme)
chain: MGSSHHHHHHSQDPSSMPNHQKVVLVGDGAVGSSYAFAMAQQGIAEEFVIVDVVKDRTKGDALDLEDAQAFTAPKKIYSGEYSDCKDADLVVITAGAPQKPGESRLDLVNKNLNILSSIVKPVVDSGFDGIFLVAANPVDILTYATWKFSGFPKDRVIGSGTSLDSSRLRVALGKQFNVDPRSVDAYIMGEHGDSEFAAYSTATIGTRPVRDVAKEQGVSDEDLAKLEDGVRNKAYDIINLKGATFYGIGTALMRISKAILRDENAVLPVGAYMDGQYGLNDIYIGTPAVIGGTGLKQIIESPLSADELKKMQDSAATLKKVLNDGLAELENKKLGGGSGGGSGGGSTVAQLEEKVKTLRAQNYELKSRVQRLREQVAQLA
maximum electric power (lactic acid fuel cell) [3]: 121 µW/cm^2
shortcircuit current density (lactic acid fuel cell) [3]: 1330 µA/cm^2

B5: His-sceADH-Dzip1 (alcohol dehydrogenase derived from Saccharomyces cerevisiae, His tag, Dzip1 association site fused at the C-terminal side) (enzyme)
chain: MGSSHHHHHHSQDPPSQVIPEKQKAIVFYETDGKLEYKDVTVPEPKPNEILVHVKYSGVCHSDLHAWHGDWPFQLKFPLIGGHEGAGVVVKLGSNVKGWKVGDFAGIKWLNGTCMSCEYCEVGNESQCPYLDGTGFTHDGTFQEYATADAVQAAHIPPNVNLAEVAPILCAGITVYKALKRANVIPGQWVTISGACGGLGSLAIQYALAMGYRVIGIDGGNAKRKLFEQLGGEIFIDFTEEKDIVGAIIKATNGGSHGVINVSVSEAAIEASTRYCRPNGTVVLVGMPAHAYCNSDVFNQVVKSISIVGSCVGNRADTREALDFFARGLIKSPIHLAGLSDVPEIFAKMEKGEIVGRYVVETSKKLGGGSGGGSGGGSTVAQLEEKVKTLRAQNYELKSRVQRLREQVAQLA
maximum electric power (alcohol fuel cell) [4]: 173 µW/cm^2
shortcircuit current density (alcohol fuel cell) [4]: 1620 µA/cm^2

B6: His-ppuMDH-Dzip1 (malic acid dehydrogenase derived from Pseudomonas putida, His tag, Dzip1 association site fused at the C-terminal side) (enzyme)
chain: MGSSHHHHHHSQDPSDLKTAALEYHAQPRPGKLSVELSKPTATARDLALAYSPGVAEPVREIGRDPELAYKYTGKGNLVAVISDGTAILGLGDLGPLASKPVMEGKGVLFKRFAGIDVFDIEVESESPQAFIDTVRRISITFGGINLEDIKAPECFEIERTLIEQCDIPVFHDDQHGTAIVTAAGMINALEIAGKKLEEAKIVCLGAGAAAISCMKLLVSMGAKVENIFMIDRSGVIHAGRDDLNQYKAQFAHATDKRTLADALDGADVFVGLSGPNLLSPEGLKSMAANPIVFACSNPDPEISPELAHATRNDVIMATGRSDYPNQVNNVLGFPFIFRGALDVRAKRINEEMKIAAAIALKDLAKLPVPKEVCEAYGVEGLEFGREYIIPKPLDARLITVVSDAVAKAAIESGVATLPYPKHYPLTSVDEVFNGKLGGGSGGGSGGGSTVAQLEEKVKTLRAQNYELKSRVQRLREQVAQLA
maximum electric power (malic acid fuel cell) [3]: 99 µW/cm^2
shortcircuit current density (malic acid fuel cell) [3]: 1030 µA/cm^2

B7: His-pfuGDH-Fos (glucose dehydrogenase derived from Pyrococcus furiosus, His tag, Fos association site fused at the C-terminal side) (enzyme)
chain: MGSSHHHHHHSQDPNILITASSRGIGFNVAKELLKKGHRVVISSSNEKNLEKALEELKEYEKVYPIKADLSKKEEIKNMVEKAWEILGKIDVLVWNAPNVKCEPCMIHELDYEDWVEGALLHIIAPGYLTTLLLNKWLKNNTRGIIIYLSSASVLEPMPPLLLADSTRAGLIQLAKGISRAYGKRGIRAYTVLLGSFDTPGARENLRRLAEKRGVDPEELWKKEVIERTPLQRTGKWEELGELIEFLLSDNAEYMLGSTILFDGAMTRSVLLKLGGGSGGGSLTDTLQAETDQLEDKKSALQTEIANLLKEKEKLEFILAAY
maximum electric power (glucose fuel cell) [5]: 126 µW/cm^2
shortcircuit current density (glucose fuel cell) [5]: 1320 µA/cm^2
